B1: PEP-dependent dihydroxyacetone kinase, ADP-binding subunit DhaL (Escherichia coli (strain K12)), P76014 (parent)
chain: MSLSRTQIVNWLTRCGDIFSTESEYLTGLDREIGDADHGLNMNRGFSKVVEKLPAIADKDIGFILKNTGMTLLSSVGGASGPLFGTFFIRAAQATQARQSLTLEELYQMFRDGADGVISRGKAEPGDKTMCDVWVPVVESLRQSSEQNLSVPVALEAASSIAESAAQSTITMQARKGRASYLGERSIGHQDPGATSVMFMMQMLALAAKE
partner: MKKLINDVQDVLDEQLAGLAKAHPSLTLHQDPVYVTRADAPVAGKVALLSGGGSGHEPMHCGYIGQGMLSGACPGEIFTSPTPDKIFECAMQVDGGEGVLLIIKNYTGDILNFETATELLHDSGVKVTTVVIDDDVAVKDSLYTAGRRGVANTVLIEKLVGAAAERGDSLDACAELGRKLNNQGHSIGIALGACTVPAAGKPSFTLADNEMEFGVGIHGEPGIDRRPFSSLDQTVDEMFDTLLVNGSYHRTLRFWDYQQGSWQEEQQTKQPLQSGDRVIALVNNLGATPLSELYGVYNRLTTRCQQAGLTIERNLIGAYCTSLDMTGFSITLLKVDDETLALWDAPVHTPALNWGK

Variants of: B1
Conditions: with dhak_ecoli dhaK

Variant | effect of a mutation on the interaction
R178E | disrupting interaction strength

Source: IntAct's records for PubMed 21209328
